The record followed here is publication PMC12862363, “AURKB-driven dissolution of CIZ1–RNA assemblies from the inactive X chromosome in mitosis” (Nucleic Acids Research, 2026).

Data set [1] deals with human CIZ1-C179Δtail (human) (UniProt Q9ULV3). Kind of data set: SEC-MALS; SEC-MALLS; 100 µl of >1 mg/ml purified protein, Superdex S200 10/300 GL, cleavage buffer (50 mM Tris-HCl pH 7, 150 mM NaCl, 1 mM EDTA, 1 mM DTT), 0.5 ml/min, room temperature (20 ± 2°C).
Data set [2] concerns C179WT (hCIZ1 C-terminal fragment) (Homo sapiens). As to the kind of experiment: EMSA. Conditions: 0.66 nM RNA; yeast tRNA 0.1 mg/ml; 10 mM Tris-HCl pH 7, 30 mM NaCl, 2.5 mM MgCl2, 0.1% IGEPAL CA-630, 0.1 mg/ml yeast tRNA, 1.5% RNaseOUT, 0.2 mM EDTA, 0.2 mM DTT, 30 C 20 min; 0.8% agarose/TBE …. (A gel shift assay detects complexes by their altered migration in electrophoresis.)

The target in data set [3] is murine CIZ1 fragment C181 (mouse) (UniProt Q8VEH2). As to the kind of experiment: SEC-MALS; SEC-MALLS; 100 µl of >1 mg/ml purified protein, Superdex S200 10/300 GL, cleavage buffer (50 mM Tris-HCl pH 7, 150 mM NaCl, 1 mM EDTA, 1 mM DTT), 0.5 ml/min, room temperature (20 ± 2°C).
Data set [4] deals with the molecule itself. Described as above.

One may read the stoichiometry N as the number of molecules, sites or subunits per partner or assembly. The molecule “human CIZ1-C179Δtail (from UniProt Q9ULV3-1 720-860) (domain or fragment)” came in with a stoichiometry N in data set [1] of 2.
Regarding Xist repeat E RNA probe, in data set [2], the binding signal (% probe shifted at 5 µM protein) was determined as 99.
“murine CIZ1 fragment C181 (from UniProt Q8VEH2 665-845) (domain or fragment)” came in with a stoichiometry N in data set [3] of 2.

B1: human CIZ1-C179 (domain or fragment, UniProt Q9ULV3-1 720-898, looked up)
chain: EKEIAGQDEDHFITVDAVGCFEGDEEEEEDDEDEEEIEVEEELCKQVRSRDISREEWKGSETYSPNTAYGVDFLVPVMGYICRICHKFYHSNSGAQLSHCKSLGHFENLQKYKAAKNPSPTTRPVSRRCAINARNALTALFTSSGRPPSQPNTQDKTPSKVTARPSQPPLPRRSTRLKT
notes: the terminal residue is printed as Thr 898; also called hC179; C179WT; source: E. coli BL21 RP CodonPlus, purified (GSTrap, on-column PreScission cleavage, Superdex 200); not shown: GST, N-terminal, cleaved
For B1, in data set [4], the “stoichiometry N” value was determined as 2.
